Reference: publication PMC6385231, “Activity-Regulated Cytoskeleton-Associated Protein (Arc/Arg3.1) is Transiently Expressed after Heat Shock Stress and Suppresses Heat Shock Factor 1” (Scientific Reports, 2019)

Biological target: T1, GST-tagged human HSF1 (human, UniProt Q00613 1-529)
T1 construct: Heat shock factor 1 (HSF1), human (hHSF1); The authors surmise that GST dimers induce HSF1 oligomerisation; also called GST-HSF1; GST-hHSF1
T1 sequence (looked up): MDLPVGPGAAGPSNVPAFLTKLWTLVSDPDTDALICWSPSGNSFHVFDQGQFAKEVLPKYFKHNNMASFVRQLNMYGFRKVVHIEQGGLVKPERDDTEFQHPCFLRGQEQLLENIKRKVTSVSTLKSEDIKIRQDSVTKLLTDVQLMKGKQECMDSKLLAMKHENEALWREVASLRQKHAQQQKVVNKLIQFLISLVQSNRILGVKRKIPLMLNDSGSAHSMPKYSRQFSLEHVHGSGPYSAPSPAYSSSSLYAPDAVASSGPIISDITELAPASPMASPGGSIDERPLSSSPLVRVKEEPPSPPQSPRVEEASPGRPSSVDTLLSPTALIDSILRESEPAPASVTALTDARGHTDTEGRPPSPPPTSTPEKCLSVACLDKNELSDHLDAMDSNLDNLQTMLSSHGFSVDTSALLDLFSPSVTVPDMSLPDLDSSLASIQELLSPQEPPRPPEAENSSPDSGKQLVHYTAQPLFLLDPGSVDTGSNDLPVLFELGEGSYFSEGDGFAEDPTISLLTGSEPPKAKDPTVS
Experiment: pull-down; GST or GST-hHSF1 on glutathione-agarose beads incubated with purified His-Arc in 20 mM MOPS pH 7.2, 100 mM KCl, 0.5% Tween, 2 μg/mL aprotinin, 3 h at 4°C; Western analysis with anti-GST and anti-Arc; with and without heat shock treatment
Conditions: both partners purified

B1: His-tagged human Arc/Arg3.1 (natural protein, UniProt Q7LC44 1-396, looked up)
chain: MELDHRTSGGLHAYPGPRGGQVAKPNVILQIGKCRAEMLEHVRRTHRHLLAEVSKQVERELKGLHRSVGKLESNLDGYVPTSDSQRWKKSIKACLCRCQETIANLERWVKREMHVWREVFYRLERWADRLESTGGKYPVGSESARHTVSVGVGGPESYCHEADGYDYTVSPYAITPPPAAGELPGQEPAEAQQYQPWVPGEDGQPSPGVDTQIFEDPREFLSHLEEYLRQVGGSEEYWLSQIQNHMNGPAKKWWEFKQGSVKNWVEFKKEFLQYSEGTLSREAIQRELDLPQKQGEPLDQFLWRKRDLYQTLYVDADEEEIIQYVVGTLQPKLKRFLRHPLPKTLEQLIQRGMEVQDDLEQAAEPAGPHLPVEDEAETLTPAPNSESVASDRTQPE
notes: Arc/Arg3.1 (activity-regulated cytoskeleton-associated protein), human (hArc/Arg3.1); The construct and its purification are not described in the methods; also called His-Arc; His-Arc/Arg3.1; source: purified
B1: binds.
